Test results from patent publication US20210277137A1.

Biological target: human CD40 on cells (human) (UniProt P25942)
Test: cell-based or functional assay

human CD40 on cells (human), sequence (P25942 21-277 limits assumed): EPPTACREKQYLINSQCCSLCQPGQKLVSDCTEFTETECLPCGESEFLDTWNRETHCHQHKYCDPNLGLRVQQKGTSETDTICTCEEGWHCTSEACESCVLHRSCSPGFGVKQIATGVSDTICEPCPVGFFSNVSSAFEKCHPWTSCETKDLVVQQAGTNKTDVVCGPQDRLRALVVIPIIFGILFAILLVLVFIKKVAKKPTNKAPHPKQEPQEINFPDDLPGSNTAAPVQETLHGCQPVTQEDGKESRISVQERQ

- Monocyte activation (THP1-Xblue, OD655): 0.12 OD655
- moDC activation (IL-12p70, pg/mL): 139 pg/mL
Substance: literature CD40 antibody G28-5
